Test results: the DeepSol protein solubility set

assay: soluble on expression in E. coli; label from the status in PepcDB or PDB records

Row | Sequence | soluble on expression in E. coli
1 | MRILVVRHGLPEDPRCFAYDPVQRLIAIGTGRGHIRIIGDAGVDYLLKHESGEPVLHMQFLVNEGGLITSCGTDSIHLWNYRQKTAEIVHTVQLSKESVSCIHLPVAGKWLFIGTDKGNVYFLCLNSFLLSPYVINWNKAIDLSCRVHPGPVRQLAVSPAENTKLLIVYDKGIVVQWNLGTREVDRYPLDPPIKSVNWHFDGRQILTGNVDGSISLYNHKKSTEAIQRTTPHGSGPCRPIQQVEWKHMSETESIIMFSGGMPTDDGLPMPALTILKGGKSATVLEMDWPIIQFIPLNQNIWNSIPQCPHSVAVLLKHDFMVLDLNQNGHPVIESPHAMNIHESPVTCMAYYSDCPLDLIGALTLVGTKQRNKEFSARSWPVTGGLGRECATGHQELVVTGHKDGSLKFWQETGEHLQILYKLKSSSHFERLEEMETSDKVSHAVKYIELCLESRQLLVAGISGQVTLFRFTKQEICGTIAVVNIPLLGNLSSNLPNNDFDKSPVPNGPGKEIRRQRKIVSRESTNSLDTSDSGDERIVPFKVRGAPVKRPPGFVPELACFVPWHSHAKVDQITTICLNSSYGIIAIGTSSGLALVDTTQCALIYSWTTNELYGSDPTPAIQLSMQLSDAASPLEIDEFENDDTLIYNTDTGNYTLRSTRNSLTPSSNGFLHPGEMPTRPKSAANSSNKSGGMMGLFRRNTAELAATIRERYQGNRSESATTDRPDVEHRGETPPPTPNEGNKVQKAGRSHSVKGSFIRRFAKSSSSKEKKEVKIEVDNQSNSGIERSRSFHSHISEEGDSQRESPSSGRQLNTSSPSTSSQSLERSMSTQPQESITSLSFIHSYSKKNDSKMSPCLWVGTSAGASLALNLILPEDRFTSTIVVAPSGTVVRLKGQVISQSFMDNTFCIISPASESYKEAAKEQSATSPDRSLLNRVNTKASLAPQYSSSIDSNDEISQILIVAAENEVKVVALPTFSQLYVQKFDEIPLVKATPTHIRGYPCLMCLSAAGQIIMLSLPSLRILQTSTIFPHSVEIDDPLCQKTAFSDHGLGVYMASQTEMEKYTMCSEIAEQTGESLGELFVPCEMPEQPKNNSFLKGVSSIFGGTPRNDPNDIDAILSENMGVKNSSGVNPMRSVARTIPGPSVQMDRAQAGGVSAGQAAAMALQNLNERTEKLNATVDATENLKNNAMSLSSRTGKLVEKYEKKKWYNF | not soluble
2 | MRISAKGRYALAAVISMAQQYNNGEYITVISISEKLGISKIFLEQVFSSLKKAKIVSSTKGVQGGYQLTRTPSQITVLDVLLSVEVSLFEQTQETVSDKAPDIEQALRSSVFDVLDKNIKQTLSTITIADLVAEAEKHKDYNALMFYI | soluble
3 | MRITSTANPRIKELARLLERKHRDSQRRFLIEGAREIERALQAGIELEQALVWEGGLNPEEQQVYAALGRVGRLALLEVSEAVLKKLSVRDNPAGLIALARMPERTLEEYRPSPDALILVAVGLEKPGNLGAVLRSADAAGAEAVLVAGGVDLYSPQVIRNSTGVVFSLRTLAASESEVLDWIKQHNLPLVATTPHAEALYWEANLRPPVAIAVGPEHEGLRAAWLEAAQTQVRIPMQGQADSLNVSVSAALLLYEALRQRLLRDRLTKTHSTL | soluble
4 | MRKFMMSVVMLAALTSCATQNMHGNYAAVSIEANKTMADVTVAQLVALYPPAHTRLDFQQTITDPYGAALLSALRKKGYSVLEYNPQPQAVPAKSAATAALVTANPTSGLPLSYVVDSPESMNLYRITVQIGVQSISRAFVVATNGNLYPAGAWVRKELEHHHHHH | not soluble
5 | MRKGCFGLVSLVLLLLVGCRSHPEIPVNDEQSLVMESSLLAAGISAEKPFLSTSDIQPSASSTLYNERQEPVTVHYRFYWYDARGLEMHPLERPRSVTIPAHSAVTLYGSANFLGAHKVRLYLYLLEHHHHHH | soluble
6 | MRKKKDGQNLPDFRKNPPKLDKKAYEKELKRLQAELVDLQQWVVETGARVVIVMEGRDAAGKGSAIKRITQYLNPRSARIEALPTPNSREKGQWYFQRYIEKLPTAGEIVIFDRSWYNRAGVERVMGFCTSQEYRRFLHQAPIFERLLVEDGIHLRKYWFSVSDEEQIERFEDRLSDPLRRWKLSPMDLQSITRWEDYSRAKDEMFIHTDIPSAPWYTVESEDKKRSRINVISHLLSTIPYEKIDRPLPEIPHRPDSESDYVRPPRDEFRYVPDVAAHLEEERIKKEEKAKKAKKPAKAAGKNSDKQKSSGGKGKKKSKK | not soluble
7 | MRKLLAVFSKGRWKMEQKLQEQLDGLLEKYTELLLGETNDELKEEVKQWILYTHIAKSMPPLAKHWNATYPDAKQGIKEIIQHIKELNEAHRNKQLEHHHHHH | soluble
